Common to all, as to conditions: chain copies: 2 heavy + 2 light chains (inferred); label: 5'-biotin; stem-loop (predicted)
Series [1] has as its target T1, mouse IgG3 (subtype 3 IgG antibody) (Mus musculus, UniProt P03987-2 P03987-2:1-329). Description: SPR; BIACORE 3000, 1:1 Langmuir. As to the method:
(§1) The analysis of binding was performed using BIACORE 3000 (produced by GE Healthcare) according to its instruction manual. Further, from the signal intensity (RU: Resonance Unit) measured using the BIACORE, the analysis was performed with 1:1 Langmuir binding model using BIAevaluation software, and the dissociation constant between each of the aptamers and each of the mouse IgG antibodies was obtained. The conditions, method, and the like of the measurement using the BIACORE were according to the following documents.
(§2) FIGS. 5 to 7 are graphs showing the change in the signal intensity over time. […] Further, in each of the graphs, the vertical axis indicates the signal intensity (RU) measured using the BIACORE and the horizontal axis indicates the analysis time (sec). In the horizontal axis, "100 seconds" is the time when the injection of a target to be analyzed to a flow cell at the flow rate of 20 μL/min is started. The injection was maintained for 2 minutes (120 seconds), and then a running buffer was sent for 3 minutes (180 seconds) to obtain the sensorgrams showing the interaction between the aptamers and IgG. The global fitting analysis was performed and the sensorgrams were obtained under different target concentration conditions for obtaining correct Kd values.

For series [2], the target named is T2, mouse IgG2a (subtype 2a IgG antibody) (Mus musculus, UniProt P01863 P01863:1-330). Description: SPR; BIACORE 3000, 1:1 Langmuir. As to the method: as §1, §2
T2 sequence (P01863 whole entry, one chain of several): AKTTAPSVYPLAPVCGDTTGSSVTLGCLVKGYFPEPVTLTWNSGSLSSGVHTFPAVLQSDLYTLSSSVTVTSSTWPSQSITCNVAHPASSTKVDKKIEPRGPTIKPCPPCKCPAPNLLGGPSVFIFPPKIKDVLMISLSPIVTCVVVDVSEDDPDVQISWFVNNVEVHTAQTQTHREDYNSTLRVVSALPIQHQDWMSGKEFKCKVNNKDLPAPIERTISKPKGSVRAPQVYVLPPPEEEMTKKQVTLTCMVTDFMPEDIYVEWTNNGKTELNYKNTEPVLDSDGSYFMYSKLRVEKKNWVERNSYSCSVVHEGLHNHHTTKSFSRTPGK
In general terms: Surface plasmon resonance follows binding to a sensor surface in real time, without labels.

The target of series [3] is T1, mouse IgG3 (subtype 3 IgG antibody). Description: SPR; second measurement (Example 3). How it is done: as §1
(§3) The experiment was performed in the same manner as in Example 2 except that MIG-m034, MIG-m035, MIG-m036, MIG-m037, and MIG-m040 were used as aptamers. FIGS. 8 to 10 are graphs showing the change in the signal intensity over time and respectively show the result obtained using the subtype 1 mouse IgG, the result obtained using the subtype 2a mouse IgG, and the result obtained using the subtype 3 mouse IgG. […] The results summarized in Table 3 tell that these aptamers each have high general versatility as a secondary antibody reagent and are good in the binding force. Further, since it was considered that the base pair in the stem region and U adjacent thereto are not involved in the binding of mouse IgG from Example 1, a clone having a systematic modified base was produced to obtain the Kd value. […]

For series [4], the target named is T2, mouse IgG2a (subtype 2a IgG antibody). Description: SPR; second measurement (Example 3). How it is done: as §1, §3
Series [5] concerns the target T1, mouse IgG3 (subtype 3 IgG antibody). Description: SPR; BIACORE 3000, 1:1 Langmuir. How it is done:
as §1
(§4) The experiment was performed in the same manner as in Example 2 except that MIG-m034, MIG-m035, MIG-m036, MIG-m037, and MIG-m040 were used as aptamers. FIGS. 8 to 10 are graphs showing the change in the signal intensity over time and respectively show the result obtained using the subtype 1 mouse IgG, the result obtained using the subtype 2a mouse IgG, and the result obtained using the subtype 3 mouse IgG. […] The results summarized in Table 3 tell that these aptamers each have high general versatility as a secondary antibody reagent and are good in the binding force. Further, since it was considered that the base pair in the stem region and U adjacent thereto are not involved in the binding of mouse IgG from Example 1, a clone having a systematic modified base was produced to obtain the Kd value. Since all the clones have substantially the same binding force to each of the mouse antibody subtypes, it was considered that the stem region was not involved in the binding with respect to all the subtypes and also that all the aptamers have the same binding mode to each of the subtypes.
The source holds these as a separate data set.

Series [6] addresses T2, mouse IgG2a (subtype 2a IgG antibody). Description: SPR; BIACORE 3000, 1:1 Langmuir. How it is done:
as §1, §4
This is another data set of the same source.

As usually defined, the Kd is the concentration at which binding is half-saturated.

T1 sequence (P03987 other isoform, or with tags, fused parts or gaps): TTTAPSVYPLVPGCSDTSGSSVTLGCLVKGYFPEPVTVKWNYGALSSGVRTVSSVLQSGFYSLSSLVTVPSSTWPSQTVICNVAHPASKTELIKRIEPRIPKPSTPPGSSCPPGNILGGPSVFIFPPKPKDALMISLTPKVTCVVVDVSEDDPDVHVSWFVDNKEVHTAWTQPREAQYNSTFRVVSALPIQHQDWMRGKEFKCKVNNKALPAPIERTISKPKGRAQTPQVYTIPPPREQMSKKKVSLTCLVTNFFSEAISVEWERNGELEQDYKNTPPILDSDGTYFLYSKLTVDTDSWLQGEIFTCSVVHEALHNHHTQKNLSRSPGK

Take AAAAACGCUGAAGAGAAGACGGAAGGAGACGAAGCGT (mixed, RNA with 5'-dA5 (1-5), LNA at C6 G7 C35 G36, 3'-dT37) [MIG-m034]: the equilibrium dissociation constant (Kd) was 8.8 nM in series [1], 0.995 nM in series [2], 8.33 nM in series [3] and 1.09 nM in series [4].

Take AAAAACGCUGAAGAGAAGACGGAAGGAGACGAAGCGT (mixed, RNA with 5'-dA5 (1-5), LNA at C6 G7 C35 G36, 2'-OMe U9, 3'-dT37) [MIG-m042]: the Kd was 5.57 nM in series [1] and 0.436 nM in series [2].

Regarding AAAAAGCUGAAGAGAAGACGGAAGGAGACGAAGCT (mixed, RNA with 5'-dA5 (1-5), LNA at G6 C7 G33 C34, 3'-dT35) [MIG-m035], the figures for the Kd in series [5] and in series [6] were 139 nM and 1.92 nM, respectively.

Take AAAAAGCGCUGAAGAGAAGACGGAAGGAGACGAAGCGC (mixed, RNA with 5'-dA5 (1-5), DNA at G6 C7 G37 C38) [MIG-m036]: the dissociation constant (Kd) in series [5] is 13.8 nM; in series [6] it was 4.61 nM.

Regarding AAAAAGCGCUGAAGAGAAGACGGAAGGAGACGAAGCGC (mixed, RNA with 5'-dA5 (1-5), DNA at 6-9 and 35-38) [MIG-m037], the Kd in series [5] is 9.85 nM; in series [6], 3.7 nM.

With AAAAAGCGCUGAAGAGAAGACGGAAGGAGACGAAGCGC (mixed, RNA with 5'-dA5 (1-5), DNA at 6-9 and 35-38, 2'-OMe U10) [MIG-m041], the Kd in series [1] was 8.4 nM; in series [2] it was 0.959 nM.

As to AAAAAGCGCUGAAGAGAAGACGGAAGGAGACGAAGCGC (mixed, RNA with 5'-dA5 (1-5), 2'-OMe U10) [MIG-m040], the equilibrium dissociation constant (Kd) in series [5] is 3.46 nM; in series [6], 1.23 nM.

The values are drawn from patent US8852954, “Nucleic acid molecule having binding affinity to rodent-derived IgG antibody, binder, detection reagent, and detection kit” (NEC Solution Innovators, Ltd.).
